Test results taken from patent US20120308575A1.

What was measured:
[1] = molecular target: recombinant human TNF-α (Product 210-TA-050, R&D) (human) (UniProt P01375); test: flow cytometry competition: FITC-TNF-α (100 ng/ml) on U937 cells, antibody titrated; experiment 2
[2] = molecular target: recombinant human TNF-α (Product 210-TA-050, R&D) (human) (UniProt P01375); test: SPR, Biacore T100, TNFα amine-coupled to CM5 chip, antibody in flow
[3] = molecular target: recombinant human TNF-α (Product 210-TA-050, R&D) (human) (UniProt P01375); test: flow cytometry competition: FITC-TNF-α (100 ng/ml) on U937 cells, antibody titrated; average of 3
[4] = molecular target: recombinant human TNF-α (Product 210-TA-050, R&D) (human) (UniProt P01375); test: flow cytometry competition: FITC-TNF-α (100 ng/ml) on U937 cells, antibody titrated; experiment 3
[5] = molecular target: recombinant human TNF-α (Product 210-TA-050, R&D) (human) (UniProt P01375); test: competition ELISA: biotin-TNF-α (10 ng/ml) on coated P75 receptor-Fc, antibody titrated; experiment 1
[6] = molecular target: recombinant human TNF-α (Product 210-TA-050, R&D) (human) (UniProt P01375); test: flow cytometry competition: FITC-TNF-α (100 ng/ml) on U937 cells, antibody titrated; experiment 1
[7] = molecular target: recombinant human TNF-α (Product 210-TA-050, R&D) (human) (UniProt P01375); test: cell-based or functional assay
[8] = molecular target: recombinant human TNF-α (Product 210-TA-050, R&D) (human) (UniProt P01375); test: competition ELISA: biotin-TNF-α (10 ng/ml) on coated P75 receptor-Fc, antibody titrated; average of 3
[9] = molecular target: recombinant human TNF-α (Product 210-TA-050, R&D) (human) (UniProt P01375); test: competition ELISA: biotin-TNF-α (10 ng/ml) on coated P75 receptor-Fc, antibody titrated; experiment 2
[10] = molecular target: recombinant human TNF-α (Product 210-TA-050, R&D) (human) (UniProt P01375); test: competition ELISA: biotin-TNF-α (10 ng/ml) on coated P75 receptor-Fc, antibody titrated; experiment 3

recombinant human TNF-α (Product 210-TA-050, R&D) (human), sequence (P01375 77-233 limits assumed): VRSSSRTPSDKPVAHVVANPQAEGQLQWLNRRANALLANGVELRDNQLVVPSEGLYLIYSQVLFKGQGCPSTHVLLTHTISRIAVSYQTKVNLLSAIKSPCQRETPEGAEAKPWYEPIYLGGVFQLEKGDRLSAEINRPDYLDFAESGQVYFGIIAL

“fully human antibody adalimumab (Humira, D2E7, commercial product)” gave an IC50 [1] of 8.03 µg/mL, a Kd [2] of 0.63 nM and an IC50 [3] of 7.36 µg/mL. For the same substance, the IC50 [4] was 7.44 µg/mL, the IC50 [5] was 2.3 µg/mL and the IC50 [6] was 6.62 µg/mL. The IC50 of resistance to TNF-α-mediated killing of L929 cells (MTS), average [7] was 316 ng/mL, the IC50 of resistance to TNF-α-mediated killing of L929 cells (MTS), experiment 1 [7] was 296 ng/mL and the IC50 of resistance to TNF-α-mediated killing of L929 cells (MTS), experiment 2 [7] was 335 ng/mL. The IC50 of resistance to TNF-α-mediated killing of L929 cells (MTS), experiment 3 [7] was 318 ng/mL, the Increase in Body Temperature of Rabbits (rhTNF-α 5 µg/kg i.v. mixed with antibody 500 µg/kg; 60 min) [7] was 0 ° C and the Survival Status of Mice (rhTNF-α 1 µg + D-galactosamine 20 mg; antibody 1 µg i.p. 30 min before) [7] was 20%. It also gave a Survival Status of Mice (rhTNF-α 1 µg + D-galactosamine 20 mg; antibody 2 µg i.p. 30 min before) [7] of 40%, a Survival Status of Mice (rhTNF-α 1 µg + D-galactosamine 20 mg; antibody 4 µg i.p. 30 min before) [7] of 40% and a Survival Status of Mice (rhTNF-α 1 µg + D-galactosamine 20 mg; antibody 6 µg i.p. 30 min before) [7] of 50%. The Survival Status of Mice (rhTNF-α 1 µg + D-galactosamine 20 mg; antibody 8 µg i.p. 30 min before) [7] was 60%, the IC50 [8] was 2.35 µg/mL and the IC50 [9] was 2.15 µg/mL. It also gave an IC50 [10] of 2.59 µg/mL.
